{"source": "paper PMC9915066", "molecular_target": "SpyTag-fused glucose dehydrogenase V149C/G190C (Streptococcus pyogenes | Aspergillus flavus)"}
{"substance": "CYTc-SpyCatcher", "values": [{"measurement": "Imax^app (nA): direct electron transfer current of the complex-immobilized gold electrode on successive glucose addition, chronoamperometry at +400 mV vs. Ag/AgCl; ST-GDH alone hardly gave a response", "result": 55, "unit": "nA"}]}
